Substrate in series [1]: NC(=O)C1=CN([C@@H]2O[C@H](COP(=O)(O)OP(=O)(O)OC[C@H]3O[C@@H](n4cnc5c(N)ncnc54)[C@H](OP(=O)(O)O)[C@@H]3O)[C@@H](O)[C@H]2O)C=CC1
As to the kind of experiment: purified protein. Type of series: biochemical, Mangifera indica. Conditions: 100 μM cyanidin, 100 mM citrate buffer pH 4.0, 30 °C, 20 min, substrate inhibition at 1.25-3.75 mM, varied: cofactor.

Substrate in series [2]: Oc1cc(O)c2cc(O)c(-c3ccc(O)c(O)c3)[o+]c2c1
As to the kind of experiment: purified protein. Type of series: biochemical, Mangifera indica. Conditions: 1 mM NADPH, 20 min.

Setting [3] is: 100 mM citrate buffer pH 4.0, 30 °C.
Where [4] appears, read: 100 mM phosphate buffer pH 3.0, 30 °C.

The results in this text go back to PMC6278290, “Biochemical and Functional Characterization of Anthocyanidin Reductase (ANR) from Mangifera indica L” (Molecules, 2018).

In general, Km refers to the concentration of substrate that gives half-maximal velocity. As a reminder, the Vmax is the rate approached at saturating substrate. One may read the kcat/Km as the second-order rate constant that governs catalysis at low substrate concentration.

Residue numbers refer to the chain shown, from its start. Names and notes keep the numbering of the source.

B1: MiANR1-3 (Mangifera indica; S2A) (protein)
chain: MAAQQTAKNTACVVGGTGFVASLLIKLLLQKGYSVSTTVRDPDNQQKISHLLSLQELGELKIFGADLTDEGSFDAPIAGSDIVFHVATPVNFASEDPENDMIKPAIQGVENVLKACAKAKTVKRVILTSSAAAVTINNQDGTGLVMDEKHWTDVEFLSSAKPPTWGYPVSKTLAERHAWKFAQENNIDLITIIPSLMAGPSLTPDIPSSLNLAMSLISGNEFLTNALKGMQMLSGSISIAHVEDVCRAHIFLAEKESASGRYICCAVNTSVPELAKFLHQRYPQYKVPTDFGDFPSKPKLLISSGKLISEGFSFKFGIEEIYDQTVEYFKAKGVL
notes: S2A from the NcoI site; C-terminal His6 tag (pET28b), E. coli BL21(DE3) pLysS, Ni-NTA purified; about 37 kDa on SDS-PAGE
With B1, in the series “purified protein [1]”, the Michaelis-Menten constant (Km) worked out at 18.98 ± 1.18 µM and the Vmax is 0.019 µmol/min/mg. In addition, in the series “purified protein [2]” (setting [3]), the Km stood at 80.43 ± 5.85 µM and the kcat/Km worked out at 401000 M⁻¹ s⁻¹.

B2: MiANR1-2 (Mangifera indica; S2A) (protein)
chain: B1 chain with V169A, H279Q, G305E
notes: as for B1
Turning to B2, in the series “purified protein [1]”, the Michaelis-Menten constant (Km) worked out at 18.14 ± 1.4 µM and the Vmax came to 0.0227 µmol/min/mg. Moreover, in “purified protein [2]” (setting [3]), the Km came out at 116.4 ± 4.42 µM and the catalytic efficiency (kcat/Km) turned out to be 363000 M⁻¹ s⁻¹.

B3: MiANR1-1 (Mangifera indica; S2A) (protein)
chain: B1 chain with D43G, Q46K, E110G, V169A, E184D, H279Q, G305E
notes: as for B1
Take B3: in the series “purified protein [2]” (setting [4]), the Michaelis constant (Km) amounted to 48.32 ± 3.45 µM and the kcat/Km amounted to 330000 M⁻¹ s⁻¹.
